Paper PMC12416549 (2024)
Where a chain is given by its changes, count along the chain named. Numbers in names are those of the source.

B1: L39I (designed binder)
chain: MTLQELLREEALRRAEAEAFRYALELLAEKFPEQKEYLIDLAEEIESQIRSLSGVDVEDVRKFLDKEWAWVKELLAEHPAELAEVEAARAARLAELRAEVEAKVAA
B2: S47W (designed binder)
chain: B1 chain with I39L, S47W
B3: Q4C (designed binder)
chain: B1 chain with Q4C, I39L
B4: Q34A (designed binder)
chain: B1 chain with Q34A, I39L
B5: V100M (designed binder)
chain: B1 chain with I39L, V100M
B6: K35D (designed binder)
chain: B1 chain with K35D, I39L
B7: A98D (designed binder)
chain: B1 chain with I39L, A98D
B8: D65F (designed binder)
chain: B1 chain with I39L, D65F
B9: E67L (designed binder)
chain: B1 chain with I39L, E67L
B10: A23F (designed binder)
chain: B1 chain with A23F, I39L
B11: A23Q (designed binder)
chain: B1 chain with A23Q, I39L
B12: A105L (designed binder)
chain: B1 chain with I39L, A105L
B13: E77S (designed binder)
chain: B1 chain with I39L, E77S
B14: D40R (designed binder)
chain: B1 chain with I39L, D40R
B15: R8L (designed binder)
chain: B1 chain with R8L, I39L
B16: A19R (designed binder)
chain: B1 chain with A19R, I39L
B17: G54I (designed binder)
chain: B1 chain with I39L, G54I
B18: E77N (designed binder)
chain: B1 chain with I39L, E77N
B19: E81L (designed binder)
chain: B1 chain with I39L, E81L
B20: A23Y (designed binder)
chain: B1 chain with A23Y, I39L
B21: R13E (designed binder)
chain: B1 chain with R13E, I39L
B22: D40T (designed binder)
chain: B1 chain with I39L, D40T
B23: F31K (designed binder)
chain: B1 chain with F31K, I39L
B24: R13W (designed binder)
chain: B1 chain with R13W, I39L
B25: L6Q (designed binder)
chain: B1 chain with L6Q, I39L
B26: W70G (designed binder)
chain: B1 chain with I39L, W70G
B27: L82Q (designed binder)
chain: B1 chain with I39L, L82Q
B28: E33M (designed binder)
chain: B1 chain with E33M, I39L
B29: L6P (designed binder)
chain: B1 chain with L6P, I39L
B30: L26I (designed binder)
chain: B1 chain with L26I, I39L
B31: E43C (designed binder)
chain: B1 chain with I39L, E43C
B32: I49V (designed binder)
chain: B1 chain with I39L, I49V
B33: E43N (designed binder)
chain: B1 chain with I39L, E43N
B34: R61N (designed binder)
chain: B1 chain with I39L, R61N
B35: L27D (designed binder)
chain: B1 chain with L27D, I39L
B36: E67Y (designed binder)
chain: B1 chain with I39L, E67Y
B37: A15M (designed binder)
chain: B1 chain with A15M, I39L
B38: E84G (designed binder)
chain: B1 chain with I39L, E84G
B39: A17L (designed binder)
chain: B1 chain with A17L, I39L
B40: A17N (designed binder)
chain: B1 chain with A17N, I39L

Target: T1, TNFR1 (Homo sapiens, UniProt P19438)
T1 chain: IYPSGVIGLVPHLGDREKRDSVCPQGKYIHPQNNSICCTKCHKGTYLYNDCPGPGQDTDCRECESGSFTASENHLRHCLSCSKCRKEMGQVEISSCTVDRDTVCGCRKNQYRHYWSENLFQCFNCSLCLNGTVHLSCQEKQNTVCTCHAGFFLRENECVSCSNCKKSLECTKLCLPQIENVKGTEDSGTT
Assay: yeast display SC50

| Binder | apparent Kd (screen) |
| --- | --- |
| B1 | 653 pM |
| B2 | 277 pM |
| B3 | 539 pM |
| B4 | 593 pM |
| B5 | 490 pM |
| B6 | 1270 pM |
| B7 | 718 pM |
| B8 | 653 pM |
| B9 | 10400 pM |
| B10 | 1160 pM |
| B11 | 539 pM |
| B12 | 653 pM |
| B13 | 1050 pM |
| B14 | 12500 pM |
| B15 | 869 pM |
| B16 | 3990 pM |
| B17 | 2480 pM |
| B18 | 490 pM |
| B19 | 653 pM |
| B20 | 1400 pM |

| Binder | apparent Kd (screen) |
| --- | --- |
| B21 | 405 pM |
| B22 | 3000 pM |
| B23 | 1160 pM |
| B24 | 252 pM |
| B25 | 4830 pM |
| B26 | 16700 pM |
| B27 | 956 pM |
| B28 | 490 pM |
| B29 | 4390 pM |
| B30 | 653 pM |
| B31 | 405 pM |
| B32 | 2050 pM |
| B33 | 446 pM |
| B34 | 1860 pM |
| B35 | 142 pM |
| B36 | 3630 pM |
| B37 | 653 pM |
| B38 | 539 pM |
| B39 | 277 pM |
| B40 | 593 pM |
